Test [1] addresses Sec61α (canine (endogenous in MDCK)) (UniProt P38377). Briefly: FRET or BRET.
The target in test [2] is Sec61β (canine (endogenous in MDCK)) (UniProt P60467). The test is described as follows: FRET or BRET. For orientation: Bioluminescence resonance energy transfer reports proximity on the nanometre scale.
Sequence of Sec61β (canine (endogenous in MDCK)) (P60467 whole entry): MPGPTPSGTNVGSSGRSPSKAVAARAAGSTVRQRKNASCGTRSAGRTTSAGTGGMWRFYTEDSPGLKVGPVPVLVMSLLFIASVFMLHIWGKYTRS

Sequence of Sec61α (canine (endogenous in MDCK)) (P38377 whole entry): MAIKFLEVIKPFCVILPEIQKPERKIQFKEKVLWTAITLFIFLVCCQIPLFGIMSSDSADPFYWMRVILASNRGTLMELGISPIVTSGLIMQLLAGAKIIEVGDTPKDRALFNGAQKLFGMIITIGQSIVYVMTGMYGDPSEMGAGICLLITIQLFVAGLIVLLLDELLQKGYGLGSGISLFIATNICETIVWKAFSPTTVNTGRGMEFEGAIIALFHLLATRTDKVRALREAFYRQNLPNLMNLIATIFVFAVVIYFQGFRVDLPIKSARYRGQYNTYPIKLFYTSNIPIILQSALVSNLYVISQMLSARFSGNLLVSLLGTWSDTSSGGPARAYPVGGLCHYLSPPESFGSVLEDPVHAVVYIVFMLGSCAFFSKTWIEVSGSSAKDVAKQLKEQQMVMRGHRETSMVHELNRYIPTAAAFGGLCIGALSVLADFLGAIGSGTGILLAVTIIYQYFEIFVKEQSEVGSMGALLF
Sequence of Sec61α (P38377 whole entry): as above
Sequence of Sec61β (P60467 whole entry): as the sequence (P60467 whole entry) above

The term stoichiometry N denotes a count of units in the complex or per binding partner. On to “Sec61β (from UniProt P60467 1-96) (natural protein)”, for which, in test [1], the FRET efficiency (pactamycin-treated cells) came to 46.8%, the FRET efficiency (puromycin-treated cells) turned out to be 46.1% and the FRET efficiency (untreated cells) is 41.8%. In test [2], the FRET efficiency (pactamycin-treated cells) was 23.9%; the FRET efficiency (puromycin-treated cells) amounted to 24.8%; the FRET efficiency (untreated cells) stood at 21.4%; the FRET efficiency (untreated cells, Fig. 3 A, donor to acceptor antibody 1:8) came out at 17%. For the same substance, the stoichiometry N in test [2] was above 2.

For “Sec61α (from UniProt P38377 1-476) (natural protein)”, in test [1], the FRET efficiency (pactamycin-treated cells) came out at 35.5%, the FRET efficiency (puromycin-treated cells) came to 33.6% and the FRET efficiency (untreated cells) stood at 38.3%. Also, in test [2], the FRET efficiency (pactamycin-treated cells) is 28%; the FRET efficiency (puromycin-treated cells) amounted to 27.9%; the FRET efficiency (untreated cells) stood at 26.4%; the FRET efficiency (untreated cells, Fig. 3 B) is 30%.

Source of the values: article PMC2172055.
